Measured values taken from patent US20140322161A1, “ANTI-IL-6 VACCINE COMPOSITION” (PEPTINOV SAS, priority 2011, published 2014).
Bridges are numbered along the chain shown (N, C = ends). BDB = bisdiazonium-benzidine, coupling agent to KLH; Gluta = glutaraldehyde, coupling agent to KLH

What was measured:
hIL-6 [1] = target: T1, hIL-6 (Homo sapiens, UniProt P05231); experiment: Human IL-6 neutralization test on HEK293 cells (hIL-6 receptor, SEAP reporter) with purified IgGs from immunized rabbits; assay type: cell-based; conditions: purified IgGs from rabbits immunized with 100 μg of the peptide
Protocol: New Zealand rabbits free from specific pathogenic organisms (n=1 per peptide) were immunized with 100 μg of peptides hP1, hP2, hP3, hP4 and hP6 derived from human IL-6 by five immunizations with CFA/IFA on D0, D14, D28, D56 and J70. The neutralizing ability of the purified IgGs, derived from the serum of each rabbit, was tested in a human IL-6 neutralization test. This test is carried out on HEK293 cells (Human Embryonic Kidney cells) transfected with the gene encoding the human IL-6 receptor and the secreted embryonic alkaline phosphatase (SEAP) reporter gene (Supplier: Invivogen). The latter is then secreted in a dose-dependent manner in response to the human IL-6.
Plating (D0): seed a flat-bottom 96-well plate, treated for cell culture with 50,000 cells per well in 100 μL of neutralization medium. (DMEM 4.5 g/L glucose, 10% v/v FCS, 2 mM L-Glutamine, 100 U/mL Penicillin/Streptomycin, 100 μg/mL of Normocin).
In parallel a so-called “pre-incubation” plate is prepared with the desired concentration of human IL-6, rabbit antibodies and commercial anti-hIL-6 antibodies used as a positive control, all in a final volume of 200 μL of neutralization medium.
The pre-incubation plate is left at 37° C. for 2 hours. 100 μL per well is then transferred to the corresponding wells of the plate containing the cells, then the latter is incubated with 5% CO2 at 37° C. for 24 hours.
Development (D1): Fill a flat-bottom 96-well plate with 180 μL per well of QUANTI-Blue (InVivoGen, CA, USA). Add 20 μL of supernatant from the plate treated with IL-6. Incubate with 5% CO2 at 37° C. for 3 hours. Determine the quantity of secreted alkaline phosphatase using a spectrophotometer set at 620 nm.

hIL-6 [2] = target: T1, hIL-6; experiment: ELISA of sera from Cynomolgus monkeys immunized with hP2 for anti hIL-6 antibodies; assay type: in vivo, Cynomolgus monkey
Protocol: Four Cynomolgus monkeys were immunized intra-muscularly at day 0 with 150 μg of the cyclized hP2 peptide derived from hIL-6 previously described coupled to the protein carrier KLH, and then emulsified with the ISA51 adjuvant (Seppic).
Boosts were performed at d15, d30, d45 with an additional boost at d76. Blood samples were collected every two weeks until the end of the experiment (d120). These sera were tested in ELISA to evaluate the production of anti hIL-6 antibodies. A control group of four monkeys immunized with KLH only was used.

Cynomolgus monkeys = experiment: Delayed-type hypersensitivity against tetanus toxoid in immunized Cynomolgus monkeys; assay type: in vivo, Cynomolgus monkey; conditions: tetanus toxoid challenge at d90, compared to the KLH group, FIG. 8
Protocol: Briefly, the TTx vaccine (Sanofi-Pasteur, solution of 0.5 ml comprising 40 IU of Tetanus Toxoid and 0.6 mg of aluminium hydroxide) was administered intramuscularly at d59 in the thigh. Then an intradermic challenge was performed at d90 in two injection sites in the back of the monkey.
Clinical features of the cutaneous reaction were evaluated once a day for each animal before the challenge and then 24 h, 48 h and 72 h after the challenge. Each injection site was monitored for the incidence, grade and duration of three parameters (erythema, thickening, nodules) and a cumulative clinical score of delayed-type hypersensitivity (DTH) comprising these three parameters was established for each group.

murine IL-6 = target: T2, murine IL-6 (Mus musculus, UniProt P08505); experiment: Murine IL-6 neutralization test on murine B9 hybridomas with purified IgGs from immunized rabbits; assay type: cell-based; conditions: purified IgGs from rabbits immunized with the peptide; B9 hybridoma proliferation, XTT
T2 sequence (P08505 25-211): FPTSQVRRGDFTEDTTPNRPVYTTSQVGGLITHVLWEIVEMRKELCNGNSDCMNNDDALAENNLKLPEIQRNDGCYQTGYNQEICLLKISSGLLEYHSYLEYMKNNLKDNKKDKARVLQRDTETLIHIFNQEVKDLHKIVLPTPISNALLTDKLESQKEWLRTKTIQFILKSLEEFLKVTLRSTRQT
Protocol: The neutralizing ability of purified IgGs based on serum from rabbits immunized with the peptides mP1, mP2, mP3, mP4, mP5 and mP6 respectively, was tested in a murine IL-6 neutralization test. This test is based on the fact that murine B9 hybridomas proliferate in a dose-dependent manner in response to murine IL-6 (Brakenhoff et al. (1987) J. Immunol. 139:4116-21).
Plating (D0): seed a flat-bottom 96-well plate, treated for cell culture with 5000 cells per well in 50 μL of neutralization medium. (RPMI 1640 without phenol red, 5% v/v Foetal Calf Serum (FCS), 2 mM L-Glutamine, 100 U/mL Penicillin/Streptomycin, […] of β-Mercaptoethanol)
In parallel a so-called “pre-incubation” plate is produced with the desired concentration of murine IL-6, samples and commercial anti-mIL-6 antibodies used as positive control, all in a final volume of 100 μL of neutralization medium.
The pre-incubation plate is left at 37° C. for 2 hours. 50 μL per well is then transferred to the corresponding wells of the plate containing the cells, then the latter is incubated with 5% CO2 at 37° C. for 96 hours.
Development (D4): Add 50 μL of a solution of XTT (for 2,3-bis-(2-methoxy-4-nitro-5-sulfophenyl)-2H-tetrazolium-5-carboxanilide)—0.5% electron coupling reagent to each well. Leave to incubate at 37° C. for 7 hours. Reading of the optical density on a spectrophotometer set at 450 nm.

C57BL/6 mice = experiment: Murine model of chronic colitis induced by DSS after vaccination; assay type: in vivo; conditions: for histological colitis score: D67 colon distal biopsies, compared with control mice treated with PBS or KLH alone, FIG. 3; for disease activity index (DAI) / reduction of the length of the colon: DSS-treated C57BL/6 mice; for disease activity index (DAI): 100 μg peptide coupled with KLH, compared with the control groups, FIG. 2; for reduction of the length of the colon: compared with control mice, FIG. 4
Excerpt: Chronic colitis induced by Dextran Sodium Sulfate (DSS) is a well-known model of chronic inflammatory disease reproducing the main characteristics of the human diseases (Alex et al. (2009) Inflamm. Bowel Dis. 15:341-352).
Briefly, groups of 6 C57BL/6 mice (Charles River Laboratories, L'Arbresle, France) were formed. The mice were immunized 4 times (once with CFA and three times with IFA) every 15 days with different vaccine preparations. The mice were respectively immunized with PBS (DSS/PBS group), 50 μg per mouse of KLH (DSS/KLH group), and 100 μg per mouse of peptide mP1, mP2, mP3, mP4, mP5 and mP6 coupled with KLH (DSS/mIL-6 peptide group). A control H2O group was also included. Four days after the first booster, colitis was induced by absorption of Dextran Sodium Sulfate (DSS) in water (2%) over 7 days followed by 7 days of water. Three DSS/water cycles were thus carried out, after which the mice received water until the end of the protocol. The clinical signs of the disease appear approximately on the fifth day after the start of treatment with DSS (D26 of the protocol). The development of the disease is measured from the start of the first DSS cycle up to the end of the protocol by a disease activity index (DAI) including weight loss, the presence of blood in the stools and the texture of the stools. The clinical scores are determined as follows: for the texture of the stools a score of 0 (hard stools) to 4 (diarrhoea), for the presence of blood in the stools a score of 0 (absence) to 4 (macroscopic blood), and weight loss a score of 0 (<1%) to 4 (>20%). Each mouse is thus assigned a clinical score with a maximum score of 12.
Then, on D67, the mice are killed by cervical dislocation. The histological sections from colon distal biopsies are scored blind, according to the severity of the inflammation (0: absence, 1: slight, 2: moderate, 3: severe), the extent of the inflammation (0: absence, 1: mucosal, 2: mucosal and sub-mucosal, 3: transmural), crypt damage (0: absence, 1: one-third damaged, 2: ⅔ damaged, 3: only the surface of the epithelium intact, 4: total destruction of the crypts and epithelium). Each mouse is thus assigned a histological score with a maximum score of 10.

IL-6Rα receptor = target: T3, IL-6Rα receptor (Homo sapiens, UniProt P08887); conditions: adults; cited from earlier work
T3 sequence (P08887 20-468): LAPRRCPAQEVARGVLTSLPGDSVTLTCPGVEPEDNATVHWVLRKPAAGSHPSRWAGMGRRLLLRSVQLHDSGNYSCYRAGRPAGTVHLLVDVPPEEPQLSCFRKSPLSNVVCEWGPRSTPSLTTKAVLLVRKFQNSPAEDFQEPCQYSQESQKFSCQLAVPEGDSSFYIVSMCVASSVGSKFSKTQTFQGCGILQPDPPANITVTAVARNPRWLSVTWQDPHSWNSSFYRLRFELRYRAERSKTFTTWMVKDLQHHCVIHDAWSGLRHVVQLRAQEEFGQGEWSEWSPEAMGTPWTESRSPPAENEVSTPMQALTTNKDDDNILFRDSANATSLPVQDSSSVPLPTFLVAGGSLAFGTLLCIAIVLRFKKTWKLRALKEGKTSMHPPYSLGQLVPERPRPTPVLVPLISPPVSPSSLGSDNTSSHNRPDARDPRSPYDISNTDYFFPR

T1 sequence (P05231 30-212): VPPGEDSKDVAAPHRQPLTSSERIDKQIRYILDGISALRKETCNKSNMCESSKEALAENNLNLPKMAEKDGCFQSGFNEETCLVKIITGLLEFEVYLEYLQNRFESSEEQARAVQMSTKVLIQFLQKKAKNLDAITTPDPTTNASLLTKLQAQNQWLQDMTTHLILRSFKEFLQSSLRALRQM

Substance | neutralization of the biological activity of human IL-6 (hIL-6 [1]) | neutralization of the biological activity of murine IL-6 (murine IL-6) | histological colitis score (C57BL/6 mice) | disease activity index (DAI) (C57BL/6 mice) | reduction of the length of the colon (C57BL/6 mice) | other results
Acetyl +T177KCQAQNQWLQDM189C-Y-BDB (Ac-TKCQAQNQWLQDMCY-{BDB}; disulfide 3-14 (inferred)) [hP6, peptide derived from hIL-6 region 177-189] | neutralize the biological activity of the human IL-6 in a dose-dependent manner |  |  |  |  | 
Acetyl+C78ESSKEALAENNLNLPK94C-Y-BDB (Ac-CESSKEALAENNLNLPKCY-{BDB}; disulfide 1-18 (inferred); also: coupled to KLH via BDB) [hP2, peptide derived from hIL-6 region 78-94] | neutralize the biological activity of the human IL-6 in a dose-dependent manner |  |  |  |  | peak of anti-hIL-6 antibody titer kinetics (hIL-6 [2]; Cynomolgus monkeys immunized with hP2, in average): ~60 days; development of antibodies against hIL-6 (ELISA) (hIL-6 [2]; four Cynomolgus monkeys, 150 μg cyclized hP2 coupled to KLH in ISA51 i.m., FIG. 7): developed antibodies against hIL-6; DTH response (cumulative clinical score) (Cynomolgus monkeys): marked attenuation of the DTH response
Acetyl+CN154QEVKDLHKIVLPTP168C-Y-BDB [mP5] |  | do not neutralize the activity of murine IL-6 |  |  |  | 
Acetyl+D176KCESQKEWLRTK188C-Y-BDB [mP6] |  | neutralize the biological activity of murine IL-6 in a dose-dependent manner | significantly reduced histological score | significantly reduced disease activity index | significantly less severe reduction of the colon | 
BDB-Y-CE125FMKNNLKDNKKDKAR140C+Amide [mP4] |  | neutralize the biological activity of murine IL-6 in a dose-dependent manner | significantly reduced histological score | significantly reduced disease activity index | significantly less severe reduction of the colon | 
BDB-Y-CE127FLQNRFESSEEQAR141C+ Amide ({BDB}-YCEFLQNRFESSEEQARC-NH2; disulfide 2-18 (inferred)) [hP4, peptide derived from hIL-6 region 127-141] | neutralize the biological activity of the human IL-6 in a dose-dependent manner |  |  |  |  | 
BDB-Y-E61IVEMRKELCNGNSD75C+Amide ({BDB}-YEIVEMRKELCNGNSDC-NH2; disulfide 11-17 (inferred)) [mP1, peptide derived from mIL-6 region 61-75] |  | neutralize the biological activity of murine IL-6 in a dose-dependent manner | significantly reduced histological score | significantly reduced disease activity index | significantly less severe reduction of the colon | 
BDB-Y-G63ISALRKETCNKSNMC78+Amide ({BDB}-YGISALRKETCNKSNMC-NH2; disulfide 11-17 (inferred)) [hP1, peptide derived from hIL-6 region 63-78] | neutralize the biological activity of the human IL-6 in a dose-dependent manner |  |  |  |  | 
Gluta-C99YQTGYNQEIC109+Amide (Gluta-CYQTGYNQEIC-NH2; disulfide 1-11 (inferred)) [mP3, peptide derived from mIL-6 region 99-109] |  | neutralize the biological activity of murine IL-6 in a dose-dependent manner | significantly reduced histological score | significantly reduced disease activity index | significantly less severe reduction of the colon | 
Gluta-C101FQSGFNEETC111 +Amide (Gluta-CFQSGFNEETC-NH2; disulfide 1-11 (inferred)) [hP3, peptide derived from hIL-6 region 101-111] | neutralize the biological activity of the human IL-6 in a dose-dependent manner |  |  |  |  | 
Tocilizumab: humanized monoclonal antibody directed against the IL-6Rα receptor |  |  |  |  |  | clinical effectiveness in rheumatoid arthritis (IL-6Rα receptor): clinically effective
